Assay results published in patent US20050074855A1 (Regeneron, published 2005).

Molecular target: T1, human IL-6 (human, UniProt P05231 30-212)
T1 construct: Soluble analyte injected at 1.25, 2.5 and 5 nM in the BIAcore assay; also called hIL-6
Experiment: SPR (BIAcore 2000), fusion captured by anti-human Fc, hIL-6 injected
Procedure: Affinity Measurements. The affinity of the various scFv-scFv-Fc fusion proteins for human IL-6 was measured using a BIAcore 2000. […] Kinetic analysis using BIAevaluation software was performed to obtain the association and dissociation rate constants.

T1 sequence (P05231 30-212 limits assumed): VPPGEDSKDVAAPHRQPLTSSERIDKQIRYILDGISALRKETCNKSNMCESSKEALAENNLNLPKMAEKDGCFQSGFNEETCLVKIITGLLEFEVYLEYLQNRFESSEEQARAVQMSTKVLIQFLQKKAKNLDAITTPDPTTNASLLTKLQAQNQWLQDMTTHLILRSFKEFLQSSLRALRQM

B1: 8F10 ScFv-Fc (Fc fusion)
chain: QVQLQQSGAELAKPGASVKMSCKASGYTFTTYWMHWIKQRPGQGLEWIGYINPSTGYSEFNQKFNDKATLTADRSSSTAYMQLNSLTSEDSAVYYCARDAYYGNYEDYWGQGTTLTVSSAGGGGSGGGGSGGGGSSIVMTQTPKFLLVSAGDRVTITCKASQSVSYDVAWYQQKPGQSPKLLIYYESNRYSGVPDRFTGSGNGTDFTFTISTVQAEDLAVYFCQQVYTSPYTFGGGTKLEIKR
notes: how it was built is not described; not shown: Fc domain of human IgG1
Kd: 0.43 nM

B2: 8F10.8F10 ScFv-ScFv-Fc (Fc fusion)
chain: QVQLQQSGAELAKPGASVKMSCKASGYTFTTYWMHWIKQRPGQGLEWIGYINPSTGYSEFNQKFNDKATLTADRSSSTAYMQLNSLTSEDSAVYYCARDAYYGNYEDYWGQGTTLTVSSAGGGGSGGGGSGGGGSSIVMTQTPKFLLVSAGDRVTITCKASQSVSYDVAWYQQKPGQSPKLLIYYESNRYSGVPDRFTGSGNGTDFTFTISTVQAEDLAVYFCQQVYTSPYTFGGGTKLEIKRGGGGSGGGGSGGGGSQVQLQQSGAELAKPGASVKMSCKASGYTFTTYWMHWIKQRPGQGLEWIGYINPSTGYSEFNQKFNDKATLTADRSSSTAYMQLNSLTSEDSAVYYCARDAYYGNYEDYWGQGTTLTVSSAGGGGSGGGGSGGGGSSIVMTQTPKFLLVSAGDRVTITCKASQSVSYDVAWYQQKPGQSPKLLIYYESNRYSGVPDRFTGSGNGTDFTFTISTVQAEDLAVYFCQQVYTSPYTFGGGTKLEIKR
notes: Monospecific tandem scFv-Fc; not shown: Fc domain of human IgG1
Kd: 0.296 nM
